Results on two molecules are retold here after patent US20120276098A1 (GlaxoSmithKline, published 2012).

B1: Rat serum albumin (other, UniProt P02770 25-608, looked up)
chain: EAHKSEIAHRFKDLGEQHFKGLVLIAFSQYLQKCPYEEHIKLVQEVTDFAKTCVADENAENCDKSIHTLFGDKLCAIPKLRDNYGELADCCAKQEPERNECFLQHKDDNPNLPPFQRPEAEAMCTSFQENPTSFLGHYLHEVARRHPYFYAPELLYYAEKYNEVLTQCCTESDKAACLTPKLDAVKEKALVAAVRQRMKCSSMQRFGERAFKAWAVARMSQRFPNAEFAEITKLATDVTKINKECCHGDLLECADDRAELAKYMCENQATISSKLQACCDKPVLQKSQCLAEIEHDNIPADLPSIAADFVEDKEVCKNYAEAKDVFLGTFLYEYSRRHPDYSVSLLLRLAKKYEATLEKCCAEGDPPACYGTVLAEFQPLVEEPKNLVKTNCELYEKLGEYGFQNAVLVRYTQKAPQVSTPTLVEAARNLGRVGTKCCTLPEAQRLPCVEDYLSAILNRLCVLHEKTPVSEKVTKCCSGSLVERRPCFSALTVDETYVPKEFKAETFTFHSDICTLPDKEKQIKKQTALAELVKHKPKATEDQLKTVMGDFAQFVDKCCKAADKDNCFATEGPNLVARSKEALA
notes: also called RSA
B2: DAT 0120: GLP-1 (7-37) A8G, helical linker, DOM7h-14 fusion (other)
chain: HGEGTFTSDVSSYLEGQAAKEFIAWLVKGRGKEAAAKEAAAKEAAAKELAAKEAAAKEAAAKEAAAKELAADIQMTQSPSSLSASVGDRVTITCRASQWIGSQLSWYQQKPGKAPKLLIMWRSSLQSGVPSRFSGSGSGTDFTLTISSLQPEDFATYYCAQGAALPRTFGQGTKVEIKR
notes: also called DAT 0120: GLP-1 A8G, helical linker, DOM7h-14 fusion

What all share (experiment): SPR (Biacore), serum albumin immobilised on CM5 chip, fusion flowed at 16 nM to 2 uM
Background: Surface plasmon resonance follows binding to a sensor surface in real time, without labels.

The target in experiment [1] is DAT 0117: Exendin 4, helical linker, DOM7h-14 fusion.
The target in a further experiment is T1, Mouse serum albumin (mouse, UniProt P07724 25-608).
T1 construct: also called MSA

In the experiment “Rat serum albumin” the target is B1.
The target in another experiment is T2, Human serum albumin (human, UniProt P02768 25-609).
T2 construct: also called HSA

T1 sequence (P07724 25-608 limits assumed): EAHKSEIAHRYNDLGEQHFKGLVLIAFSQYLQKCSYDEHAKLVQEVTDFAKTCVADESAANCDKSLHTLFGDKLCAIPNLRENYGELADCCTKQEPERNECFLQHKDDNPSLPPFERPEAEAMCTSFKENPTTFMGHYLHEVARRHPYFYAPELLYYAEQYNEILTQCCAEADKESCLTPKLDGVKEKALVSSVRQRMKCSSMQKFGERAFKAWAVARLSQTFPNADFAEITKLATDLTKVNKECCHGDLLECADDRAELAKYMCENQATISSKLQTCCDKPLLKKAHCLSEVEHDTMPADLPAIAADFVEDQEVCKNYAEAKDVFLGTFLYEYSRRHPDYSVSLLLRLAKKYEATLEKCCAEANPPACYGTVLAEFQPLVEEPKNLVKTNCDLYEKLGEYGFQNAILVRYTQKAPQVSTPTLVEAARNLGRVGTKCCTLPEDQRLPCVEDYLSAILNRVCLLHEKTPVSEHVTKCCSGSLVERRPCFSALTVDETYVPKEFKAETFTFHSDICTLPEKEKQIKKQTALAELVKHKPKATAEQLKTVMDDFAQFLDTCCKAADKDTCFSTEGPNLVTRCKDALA

Usually Kd stands for the free concentration of one partner at which half of the binding sites on the other are occupied at equilibrium, for simple one-to-one binding. Molecule B1 came in with a Kd in experiment [1] of 700 nM.
With B2, the Kd in the experiment with Mouse serum albumin turned out to be 110 nM; with Rat serum albumin, 800 nM; in the experiment with Human serum albumin, 110 nM.
